Results: patent US20250382383A1

Target: soluble recombinant TGF-β1 (UniProt P01137)
Assay: cell-based or functional assay

Sequence of TGF-beta dominant negative receptor (TGFβ DNR) (P37173 23-194 limits assumed): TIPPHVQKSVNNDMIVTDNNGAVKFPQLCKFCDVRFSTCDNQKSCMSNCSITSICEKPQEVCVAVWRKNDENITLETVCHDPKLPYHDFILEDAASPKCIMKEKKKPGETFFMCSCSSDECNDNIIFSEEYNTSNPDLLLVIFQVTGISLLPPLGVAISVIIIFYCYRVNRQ
Sequence of soluble recombinant TGF-β1 (P01137 279-390 limits assumed): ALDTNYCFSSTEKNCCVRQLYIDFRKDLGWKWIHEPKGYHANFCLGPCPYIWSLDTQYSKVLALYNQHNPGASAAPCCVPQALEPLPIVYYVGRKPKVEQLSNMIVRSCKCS

- pSMAD2 (MFI/µg protein), TGFβ +; CAR-DNR T cells; Donor 1 (MFI/µg protein): 2210
- pSMAD2 (MFI/µg protein), TGFβ +; Tri-2A T cells; Donor 1 (MFI/µg protein): 1970
- pSMAD2 (MFI/µg protein), TGFβ +; Tri-2A T cells; Donor 2 (MFI/µg protein): 2080
- pSMAD2 (MFI/µg protein), TGFβ +; Tri-2A T cells; Donor 3 (MFI/µg protein): 1730
- pSMAD2 (MFI/µg protein), TGFβ +; Tri-IRES T cells; Donor 1 (MFI/µg protein): 3240
- pSMAD2 (MFI/µg protein), TGFβ +; Tri-IRES T cells; Donor 2 (MFI/µg protein): 3400
- pSMAD2 (MFI/µg protein), TGFβ +; Tri-IRES T cells; Donor 3 (MFI/µg protein): 2270
- pSMAD2 (MFI/µg protein), TGFβ +; Tri-mSCV T cells; Donor 1 (MFI/µg protein): 2480
- pSMAD2 (MFI/µg protein), TGFβ +; Tri-mSCV T cells; Donor 2 (MFI/µg protein): 1720
- pSMAD2 (MFI/µg protein), TGFβ +; Tri-mSCV T cells; Donor 3 (MFI/µg protein): 1200
- pSMAD2/3 (MFI CAR+), TGFb +; CAR-DNR T cells; Donor 1: 86.9 MFI
- pSMAD2/3 (MFI CAR+), TGFb +; CAR-DNR T cells; Donor 2: 105 MFI
- pSMAD2/3 (MFI CAR+), TGFb +; CAR-DNR T cells; Donor 3: 106 MFI
- pSMAD2/3 (MFI CAR+), TGFb +; Tri-2A T cells; Donor 1: 106 MFI
- pSMAD2/3 (MFI CAR+), TGFb +; Tri-2A T cells; Donor 2: 208 MFI
- pSMAD2/3 (MFI CAR+), TGFb +; Tri-2A T cells; Donor 3: 189 MFI
- pSMAD2/3 (MFI CAR+), TGFb +; Tri-IRES T cells; Donor 1: 70.6 MFI
- pSMAD2/3 (MFI CAR+), TGFb +; Tri-IRES T cells; Donor 2: 89.7 MFI
- pSMAD2/3 (MFI CAR+), TGFb +; Tri-IRES T cells; Donor 3: 89.4 MFI
- pSMAD3 (MFI/µg protein), TGFβ +; CAR-DNR T cells; Donor 1 (MFI/µg protein): 621
- pSMAD3 (MFI/µg protein), TGFβ +; Tri-2A T cells; Donor 1 (MFI/µg protein): 561
- pSMAD3 (MFI/µg protein), TGFβ +; Tri-2A T cells; Donor 2 (MFI/µg protein): 488
- pSMAD3 (MFI/µg protein), TGFβ +; Tri-2A T cells; Donor 3 (MFI/µg protein): 405
- pSMAD3 (MFI/µg protein), TGFβ +; Tri-IRES T cells; Donor 1 (MFI/µg protein): 942
- pSMAD3 (MFI/µg protein), TGFβ +; Tri-IRES T cells; Donor 2 (MFI/µg protein): 788
- pSMAD3 (MFI/µg protein), TGFβ +; Tri-IRES T cells; Donor 3 (MFI/µg protein): 643
- pSMAD3 (MFI/µg protein), TGFβ +; Tri-mSCV T cells; Donor 1 (MFI/µg protein): 660
- pSMAD3 (MFI/µg protein), TGFβ +; Tri-mSCV T cells; Donor 2 (MFI/µg protein): 460
- pSMAD3 (MFI/µg protein), TGFβ +; Tri-mSCV T cells; Donor 3 (MFI/µg protein): 377
Substance: TGF-beta dominant negative receptor (TGFβ DNR) (from UniProt P37173 23-194)
